Experimental data reported in the supplement of paper PMC7877785.
± gives the uncertainty stated by the source.

Experiment: self-splicing fitness, log relative to wild type (ln ratio); higher = more splicing; Tetrahymena group I intron in knt gene, E. coli kanamycin selection, DiMSum; sequences stand for … in CUCUCU…GGAGGGAAAAGUUAUCAGGCAUGCACCUGGUAGCUAGUCUUUAAACCAAUAGAUUGCAUCGGUUUAAAAGGCAAGACCGUCAAAUUGCGGGAAAGGGGUCAACAGCCGUUCAGUACCAAGUCUCAGGGGAAACUUUGAGAUGGCCUUGCAAAGGGUAUGGUAAUAAGCUGACGGACAUGGUCCUAACCACGCAGCCAAGUCCUAAGUCAACAGAUCUUCUGUUGAUAUGGAUGCAGUUCACAGACUAAAUGUCGGUCGGGGAAGAUGUAUUCUUCUCAUAAGAUAUAGUCGGACCUCUCCUUAAUGGGAGCUAGCGGAUGAAGUGAUGCAACACUGGAGCCGCUGGGAACUAAUUUGUAUGCGAAAGUAUAUUGAUUAGUUUUGGAGUACUCGUGGUCG
Method in brief: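 Pooled colonies went to amplicon sequencing on an Illumina HiSeq 2500 after six replicate transformations. The plates were LB agar with 100 μg/mL carbenicillin, 50 μM IPTG and 0.2% rhamnose, with or without 25 μg/mL kanamycin, incubated overnight at 37°C or 30°C. The E. coli BL21(DE3) library had all eight P1ex-region intron nucleotides randomised, the intron placed in the knt kanamycin-resistance gene on pET-22b(+). DiMSum fitness is the error-weighted combination of replicate fold changes, kanamycin against none, normalised to wild type.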

Sequence | self-splicing fitness (ln) (30 °C) | self-splicing fitness (ln) (37 °C)
CCUAAGCAAUAUUACGUGUA | -3.61 ± 0.15 | -1.89 ± 0.14
UGAGAGCAAUAUUACGUAUG | -1.55 ± 0.13 | -1.66 ± 0.22
ACGCAGCAAUAUUACGGUCG | -0.525 ± 0.055 | -0.355 ± 0.072
AGUUAGCAAUAUUACGAUCA | -0.843 ± 0.13 | 0.619 ± 0.12
UAGAAGCAAUAUUACGCAAC | -1.44 ± 0.18 | -2.33 ± 0.42
AGGUAGCAAUAUUACGACGA | -0.363 ± 0.016 | -0.00769 ± 0.034
UGAGAGCAAUAUUACGCGGA | -3.34 ± 0.47 | -1.49 ± 0.46
ACGAAGCAAUAUUACGGCGU | -2.47 ± 0.09 | -1.74 ± 0.11
ACGCAGCAAUAUUACGAAGC | -3.38 ± 0.24 | -1.6 ± 0.28
UCCCAGCAAUAUUACGUCCG |  | -2.06 ± 0.47
GCUGAGCAAUAUUACGUGGA | -2.09 ± 0.19 | -2.9 ± 0.31
AGAAAGCAAUAUUACGCGUG | -1.72 ± 0.087 | -0.548 ± 0.093
UAUAAGCAAUAUUACGCUUA | -1.88 ± 0.27 | -0.653 ± 0.2
AUAAAGCAAUAUUACGGGAC | -1.72 ± 0.1 | -2.4 ± 0.16
UCCGAGCAAUAUUACGGAGU | -3.73 ± 0.21 | -2.74 ± 0.22
CCCUAGCAAUAUUACGGAGU | -4.58 ± 0.36 | -2.99 ± 0.35
CGGCAGCAAUAUUACGGUCU | -0.384 ± 0.066 | 0.364 ± 0.087
ACGCAGCAAUAUUACGCUUU | -1.69 ± 0.079 | -1.15 ± 0.11
GGGAAGCAAUAUUACGGAUA |  | -1.38 ± 0.42
AUCGAGCAAUAUUACGGCUC | -1.39 ± 0.36 | -1.56 ± 0.49
CUAAAGCAAUAUUACGCCGA | -3.46 ± 0.24 | -2.42 ± 0.25
UCUAAGCAAUAUUACGGCAG | -1.35 ± 0.13 | -0.508 ± 0.14
UUGGAGCAAUAUUACGAAGU | -3.34 ± 0.37 | 0.521 ± 0.31
GCCAAGCAAUAUUACGCUCU | -0.234 ± 0.1 | -0.0648 ± 0.12
AACCAGCAAUAUUACGAUAA | -1.35 ± 0.058 | -0.457 ± 0.069

Sequence | self-splicing fitness (ln) (30 °C) | self-splicing fitness (ln) (37 °C)
GCAGAGCAAUAUUACGACGC | -3.56 ± 0.3 | -1.69 ± 0.18
UCAGAGCAAUAUUACGUGCA | -2.3 ± 0.16 | -2.1 ± 0.18
UAUCAGCAAUAUUACGUCUA | -0.033 ± 0.078 | 0.747 ± 0.1
AGGUAGCAAUAUUACGCGAC | -2.971 ± 0.029 | -1.8 ± 0.04
GCAUAGCAAUAUUACGACUG | -1.68 ± 0.12 | -0.65 ± 0.16
GGGCAGCAAUAUUACGGAAU | -1.49 ± 0.11 | -1.3 ± 0.19
AUGGAGCAAUAUUACGACGG |  | 1.8 ± 0.38
CGGCAGCAAUAUUACGACCG | -3.76 ± 0.31 | 
AACGAGCAAUAUUACGUUCU | -2.19 ± 0.14 | -1.93 ± 0.2
UCGUAGCAAUAUUACGGUAG | -4.09 ± 0.36 | -3.06 ± 0.4
CAAGAGCAAUAUUACGUCCU | -3.32 ± 0.43 | -2.24 ± 0.29
ACGGAGCAAUAUUACGAGAC | -0.64 ± 0.18 | 
GGGAAGCAAUAUUACGUUAA | -2.82 ± 0.18 | -1.73 ± 0.19
CUGGAGCAAUAUUACGUAUU | -3.84 ± 0.31 | -2.09 ± 0.27
AAUGAGCAAUAUUACGAAAG |  | -3.18 ± 0.4
GUUGAGCAAUAUUACGGGGU | -3.56 ± 0.25 | -2.42 ± 0.22
AAGUAGCAAUAUUACGGUCA | -0.974 ± 0.094 | -0.354 ± 0.1
CCGAAGCAAUAUUACGCCUU | -3.35 ± 0.36 | -1.21 ± 0.3
AAUGAGCAAUAUUACGCGCG | -2.52 ± 0.18 | -1.9 ± 0.2
CGGUAGCAAUAUUACGGUUC | -2.96 ± 0.3 | -1.93 ± 0.29
UAUCAGCAAUAUUACGGGGC | -2.85 ± 0.18 | -2.59 ± 0.19
GGACAGCAAUAUUACGCCGG | -3.95 ± 0.48 | -2.11 ± 0.32
CUCUAGCAAUAUUACGAAGG | -2.01 ± 0.38 | -1.16 ± 0.32
AGAAAGCAAUAUUACGAGAG | -3.2 ± 0.16 | -2.44 ± 0.17
AGGAAGCAAUAUUACGGCGC | -0.231 ± 0.11 | -0.104 ± 0.15
